This assay addresses SITS-labeled human αB-crystallin wild type (human) (UniProt P02511). As to the kind of experiment: FRET or BRET; in vitro subunit exchange: equal amounts (0.4 mg/ml) of SITS-labeled αB-wt (donor) and LYI-labeled αA-wt or mutant (acceptor) mixed at 37°C in 20 mM MOPS, 100 mM NaCl, pH 7.9; excitation 336 nm, rate constant k from the increase of acceptor emission at 515 nm, fit Ft/F0 = A1+A2e^-kt. (In general: Bioluminescence resonance energy transfer reports proximity on the nanometre scale.)

Sequence of LYI-labeled human αA-crystallin wild type (P02489 whole entry): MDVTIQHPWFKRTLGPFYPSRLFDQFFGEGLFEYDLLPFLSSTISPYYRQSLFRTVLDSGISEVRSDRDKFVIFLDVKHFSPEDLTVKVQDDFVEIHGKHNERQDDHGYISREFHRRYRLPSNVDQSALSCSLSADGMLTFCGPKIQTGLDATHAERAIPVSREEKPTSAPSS
Sequence of SITS-labeled human αB-crystallin wild type (human) (P02511 whole entry): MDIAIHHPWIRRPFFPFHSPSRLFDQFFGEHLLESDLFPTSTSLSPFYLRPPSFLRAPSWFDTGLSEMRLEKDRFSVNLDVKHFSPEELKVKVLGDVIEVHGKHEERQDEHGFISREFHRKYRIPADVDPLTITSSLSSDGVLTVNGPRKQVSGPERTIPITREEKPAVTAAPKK

In turn, “LYI-labeled human αA-crystallin wild type (from UniProt P02489 1-173) (natural protein)” yielded a k (rate constant of subunit exchange) of 0.000657 S^-1.
